Legend:
[1] = molecular target: HLA-B*18:01; assay: IEDB peptide-MHC binding, purified MHC/competitive/radioactivity; filed as Kd, often an IC50 or EC50 that approximates it; ≥ and ≤ were set here for values at or beyond the usual limits of such assays
[2] = molecular target: HLA-B*40:02; assay: as above
[3] = molecular target: HLA-B*45:01; assay: as above
[4] = molecular target: HLA-B*44:02; assay: as above
[5] = molecular target: HLA-B*44:03; assay: as above
[6] = molecular target: HLA-B*40:01; assay: as above
[7] = molecular target: HLA-A*26:01; assay: IEDB peptide-MHC binding, purified MHC/competitive/fluorescence; filed as Kd, often an IC50 or EC50 that approximates it; ≥ and ≤ were set here for values at or beyond the usual limits of such assays
[8] = molecular target: HLA-B*53:01; assay: IEDB peptide-MHC binding, purified MHC/competitive/radioactivity; filed as Kd, often an IC50 or EC50 that approximates it; ≥ and ≤ were set here for values at or beyond the usual limits of such assays; conditions: source organism: Dengue virus 1 Brazil/97-11/1997
[9] = molecular target: HLA-B*35:01; assay: as above; conditions: source organism: Dengue virus 1 Brazil/97-11/1997
[10] = molecular target: HLA-A*01:01; assay: IEDB peptide-MHC binding, purified MHC/direct/fluorescence; filed as Kd, often an IC50 or EC50 that approximates it; ≥ and ≤ were set here for values at or beyond the usual limits of such assays; conditions: source organism: SARS-CoV1
[11] = molecular target: HLA-A*11:01; assay: as above; conditions: source organism: SARS-CoV1
[12] = molecular target: HLA-A*03:01; assay: as above; conditions: source organism: SARS-CoV1
[13] = molecular target: HLA-B*08:01; assay: as above; conditions: source organism: SARS-CoV1
[14] = molecular target: HLA-A*31:01; assay: as above; conditions: source organism: SARS-CoV1
[15] = molecular target: HLA-B*15:01; assay: as above; conditions: source organism: SARS-CoV1
[16] = molecular target: HLA-A*02:01; assay: as above; conditions: source organism: SARS-CoV1
[17] = molecular target: HLA-B*58:01; assay: as above; conditions: source organism: SARS-CoV1
[18] = molecular target: HLA-A*30:02; assay: IEDB peptide-MHC binding, purified MHC/competitive/radioactivity; filed as Kd, often an IC50 or EC50 that approximates it; ≥ and ≤ were set here for values at or beyond the usual limits of such assays; conditions: source organism: SARS coronavirus Tor2
[19] = molecular target: HLA-A*24:02; assay: as above; conditions: source organism: SARS coronavirus Tor2
[20] = molecular target: HLA-A*29:02; assay: as above; conditions: source organism: SARS coronavirus Tor2
[21] = molecular target: HLA-A*23:01; assay: as above; conditions: source organism: SARS coronavirus Tor2
[22] = molecular target: HLA-A*26:01; assay: as above; conditions: source organism: SARS coronavirus Tor2
[23] = source organism: Mammarenavirus lassaense
[24] = source organism: Mammarenavirus juninense
[25] = source organism: SARS coronavirus Tor2
[26] = source organism: Mammarenavirus machupoense

ADNLITEML
Kd [1, 23]: ≥ 36300 nM
Kd [2, 23]: 415 nM
Kd [3, 23]: ≥ 77700 nM
Kd [4, 23]: 6200 nM
Kd [5, 23]: 12300 nM
Kd [6, 23]: ≥ 27800 nM

AETGSQGVYM
Kd [1, 24]: ≥ 70400 nM
Kd [2, 24]: 184 nM
Kd [3, 24]: 13600 nM
Kd [4, 24]: 304 nM
Kd [5, 24]: 1040 nM
Kd [6, 24]: 3030 nM

DEFIQRYKL
Kd [1, 25]: 47.9 nM
Kd [2, 25]: 2500 nM
Kd [3, 25]: ≥ 25900 nM
Kd [4, 25]: 15900 nM
Kd [5, 25]: 8800 nM
Kd [6, 25]: ≥ 23900 nM

DELGNILSTY
Kd [1, 26]: 8.62 nM
Kd [2, 26]: 5380 nM
Kd [3, 26]: ≥ 70000 nM
Kd [4, 26]: 1860 nM
Kd [5, 26]: 361 nM
Kd [6, 26]: ≥ 69500 nM

DLYRMYSRY
Kd ([7]; source organism: Actinobacillus pleuropneumoniae serovar 1 str. 4074): 301 nM

DPVVYDAKF
Kd [8]: 648 nM
Kd [9]: 959 nM

EEAALCTFL
Kd [1, 25]: 11800 nM
Kd [2, 25]: 840 nM
Kd [3, 25]: 37.8 nM
Kd [4, 25]: 452 nM
Kd [5, 25]: 168 nM
Kd [6, 25]: 172 nM

EEGNLLDSYF
Kd [1, 25]: 10700 nM
Kd [2, 25]: ≥ 70800 nM
Kd [3, 25]: ≥ 20200 nM
Kd [4, 25]: 3.88 nM
Kd [5, 25]: 11.7 nM
Kd [6, 25]: ≥ 41800 nM

EELSLMYEAL
Kd [1, 26]: 1810 nM
Kd [2, 26]: 205 nM
Kd [3, 26]: 1590 nM
Kd [4, 26]: 1790 nM
Kd [5, 26]: 2000 nM
Kd [6, 26]: 15400 nM

EEPVSLLPLS
Kd [1, 26]: ≥ 38400 nM
Kd [2, 26]: 6150 nM
Kd [3, 26]: 565 nM
Kd [4, 26]: 5710 nM
Kd [5, 26]: 1870 nM
Kd [6, 26]: 7390 nM

ETIVLLRAF
Kd ([7]; source organism: Influenza A virus (A/Wellington/22/2001(H3N2))): 27.6 nM

FEIKSAKKF
Kd [1, 25]: 1080 nM
Kd [2, 25]: 621 nM
Kd [3, 25]: 18000 nM
Kd [4, 25]: 15.9 nM
Kd [5, 25]: 35.3 nM
Kd [6, 25]: 1710 nM

FMGRIRSVY
Kd [10]: 5870 nM
Kd [11]: 18200 nM
Kd [12]: 2340 nM
Kd [13]: 604 nM
Kd [14]: 123 nM
Kd [15]: 393 nM
Kd [16]: 9160 nM
Kd [17]: 6000 nM
Kd [18]: 0.157 nM
Kd [19]: ≥ 55900 nM
Kd [20]: 1.7 nM
Kd [21]: ≥ 77800 nM
Kd [22]: 2240 nM

GEPKTVKVL
Kd [1, 23]: ≥ 77500 nM
Kd [2, 23]: 566 nM
Kd [3, 23]: ≥ 77700 nM
Kd [4, 23]: ≥ 77900 nM
Kd [5, 23]: ≥ 78100 nM
Kd [6, 23]: 18800 nM
